Data on 2 molecules can be found in article PMC3794954, “An Improved SELEX-Seq Strategy for Characterizing DNA-Binding Specificity of Transcription Factor: NF-κB as an Example”.

For series [1], the target named is T1, NF-kB p50 (UniProt P19838 1-433). Kind of series: EMSA; no polydI-dC; 1x DBB (from 5x): 10 mM Tris-HCl pH 7.5, 50 mM NaCl, 0.5 mM EDTA, 3 mM MgCl2, 1% glycerol, 0.5 mg/ml BSA, 0.05% NP-40, 0.01 mM DTT; room temperature 60 min; 6%. The following applies: protein: commercial; chain copies: 2; label: 5' FAM on reverse strand (primer P-R); blunt. For orientation: In EMSA bound probe runs differently from free probe, usually more slowly.

The target in series [2] is T1, NF-kB p50. Put plainly: EMSA; higher affinity than the 3' T probe; 1x DBB (from 5x): 10 mM Tris-HCl pH 7.5, 50 mM NaCl, 0.5 mM EDTA, 3 mM MgCl2, 1% glycerol, 0.5 mg/ml BSA, 0.05% NP-40, 0.01 mM DTT; room temperature 60 min; 6%. The following applies: protein: commercial; chain copies: 2; label: biotin at ends; blunt.

T1 sequence (P19838 1-433): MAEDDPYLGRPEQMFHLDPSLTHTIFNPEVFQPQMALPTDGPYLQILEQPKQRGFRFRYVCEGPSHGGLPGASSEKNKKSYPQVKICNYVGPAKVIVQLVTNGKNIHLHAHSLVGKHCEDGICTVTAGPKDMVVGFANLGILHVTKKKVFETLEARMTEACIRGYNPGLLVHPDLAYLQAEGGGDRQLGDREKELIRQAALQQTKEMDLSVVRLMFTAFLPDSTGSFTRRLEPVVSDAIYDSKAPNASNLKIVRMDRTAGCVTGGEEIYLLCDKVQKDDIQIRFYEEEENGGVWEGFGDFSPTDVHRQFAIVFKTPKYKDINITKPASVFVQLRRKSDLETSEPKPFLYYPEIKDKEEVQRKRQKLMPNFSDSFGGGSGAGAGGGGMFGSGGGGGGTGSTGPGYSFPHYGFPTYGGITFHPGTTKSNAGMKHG

B1: positive dsDNA (dsDNA)
DNA 1: ACTGTCTGAGGAGTGTCGTGTGCTAAAGGGACTTTCCAAAACGACTCAGCACCACTTCACTCAC
DNA 2: GTGAGTGAAGTGGTGCTGAGTCGTTTTGGAAAGTCCCTTTAGCACACGACACTCCTCAGACAGT
On to B1, for which the binding result with NF-kB p50 [1] is “binds”.

B2: probe b (GGGACTTTCCC) (dsDNA)
DNA 1: AGTTGAGGGGACTTTCCCAGGC
DNA 2: GCCTGGGAAAGTCCCCTCAACT
For B2, the binding result with NF-kB p50 [2] is “binds”.
